One experiment has as its target T1, N262A (HIV-1).
T1 construct: full-length Env of lysed pseudovirus; HXB-2 numbering
The experiment can be described thus: capture ELISA on Env of lysed AD8 pseudovirus, % of WT.

A further experiment deals with T2, M475A (HIV-1).
T2 construct: full-length Env of lysed pseudovirus; HXB-2 numbering
The description is as above.

Another experiment addresses T3, N276A (HIV-1).
T3 construct: full-length Env of lysed pseudovirus; HXB-2 numbering
Described as above.

The next experiment addresses T4, D185A (HIV-1).
T4 construct: full-length Env of lysed pseudovirus; HXB-2 numbering
Described as above.

The next experiment concerns the target T5, E87A (HIV-1).
T5 construct: full-length Env of lysed pseudovirus; HXB-2 numbering
The description is as above.

Another experiment concerns the target T6, K282A (HIV-1).
T6 construct: full-length Env of lysed pseudovirus; HXB-2 numbering
Described as above.

The target in another experiment is T7, A329K (HIV-1).
T7 construct: full-length Env of lysed pseudovirus; HXB-2 numbering
The experiment is described as above.

The next experiment has as its target T8, Q363A (HIV-1).
T8 construct: full-length Env of lysed pseudovirus; HXB-2 numbering
The experiment is described as above.

Another experiment has as its target T9, R419A (HIV-1).
T9 construct: full-length Env of lysed pseudovirus; HXB-2 numbering
The description is as above.

The target of another experiment is T10, K121A (HIV-1).
T10 construct: full-length Env of lysed pseudovirus; HXB-2 numbering
The experiment is described as above.

In the next experiment the target is T11, L179A (HIV-1).
T11 construct: full-length Env of lysed pseudovirus; HXB-2 numbering
Described as above.

Another experiment addresses T12, G472A (HIV-1).
T12 construct: full-length Env of lysed pseudovirus; HXB-2 numbering
Described as above.

The next experiment addresses T13, M373A (HIV-1).
T13 construct: full-length Env of lysed pseudovirus; HXB-2 numbering
Described as above.

A further experiment concerns the target T14, P369A (HIV-1).
T14 construct: full-length Env of lysed pseudovirus; HXB-2 numbering
The experiment is described as above.

A further experiment addresses T15, R476A (HIV-1).
T15 construct: full-length Env of lysed pseudovirus; HXB-2 numbering
The experiment is described as above.

In another experiment the target is T16, N197A (HIV-1).
T16 construct: full-length Env of lysed pseudovirus; HXB-2 numbering
The description is as above.

In a further experiment the target is T17, N283A (HIV-1).
T17 construct: full-length Env of lysed pseudovirus; HXB-2 numbering
The description is as above.

The target of a further experiment is T18, P313A (HIV-1).
T18 construct: full-length Env of lysed pseudovirus; HXB-2 numbering
The experiment is described as above.

The target in the next experiment is T19, S365A (HIV-1).
T19 construct: full-length Env of lysed pseudovirus; HXB-2 numbering
Described as above.

Another experiment addresses T20, CenpB (human, UniProt P07199 1-599).
T20 sequence (looked up): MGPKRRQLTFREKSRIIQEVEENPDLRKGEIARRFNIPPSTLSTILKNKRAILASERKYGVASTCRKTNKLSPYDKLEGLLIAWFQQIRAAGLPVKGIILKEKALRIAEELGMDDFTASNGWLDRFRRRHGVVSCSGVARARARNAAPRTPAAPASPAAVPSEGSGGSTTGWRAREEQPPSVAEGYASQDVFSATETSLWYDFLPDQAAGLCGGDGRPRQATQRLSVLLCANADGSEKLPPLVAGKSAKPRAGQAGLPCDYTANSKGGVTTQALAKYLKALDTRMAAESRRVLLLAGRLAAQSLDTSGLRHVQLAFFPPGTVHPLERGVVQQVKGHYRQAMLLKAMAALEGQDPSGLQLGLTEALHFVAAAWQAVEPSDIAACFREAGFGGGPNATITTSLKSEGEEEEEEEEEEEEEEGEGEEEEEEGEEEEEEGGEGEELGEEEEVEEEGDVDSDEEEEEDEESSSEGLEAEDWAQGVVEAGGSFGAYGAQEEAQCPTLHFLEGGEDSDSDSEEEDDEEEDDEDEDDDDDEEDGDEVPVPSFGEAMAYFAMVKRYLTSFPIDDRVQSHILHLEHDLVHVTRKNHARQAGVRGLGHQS
Description: single autoantigen ELISA (AESKULISA ANA-8Pro), FIG. 9A.

The next experiment has as its target T21, Jo-1 (human, UniProt P12081 1-509).
T21 sequence (looked up): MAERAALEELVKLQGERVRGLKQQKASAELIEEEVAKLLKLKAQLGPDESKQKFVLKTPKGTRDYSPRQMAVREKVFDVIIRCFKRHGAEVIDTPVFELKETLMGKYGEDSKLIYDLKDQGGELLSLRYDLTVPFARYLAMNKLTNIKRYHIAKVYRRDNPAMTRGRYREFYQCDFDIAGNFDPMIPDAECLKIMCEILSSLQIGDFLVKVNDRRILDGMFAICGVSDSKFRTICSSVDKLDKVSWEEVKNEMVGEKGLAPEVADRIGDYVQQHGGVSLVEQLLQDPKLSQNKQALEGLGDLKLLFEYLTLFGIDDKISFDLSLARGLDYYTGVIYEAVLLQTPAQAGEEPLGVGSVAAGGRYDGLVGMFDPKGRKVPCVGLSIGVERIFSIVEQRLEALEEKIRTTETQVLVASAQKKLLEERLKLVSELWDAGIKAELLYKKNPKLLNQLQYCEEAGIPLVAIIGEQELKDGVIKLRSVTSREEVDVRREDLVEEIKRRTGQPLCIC
The experiment is described as above.

Description for CenpB: (§1) Polyreactivity assay: Single autoantigen reactivity. […] ANA-8Pro (Aesku) for U1-ribonucleoprotein (RNP), SnRNP/Sm, Sm, SS-A, SS-B, Jo-1, Scl-70, and CenpB. The 96 wells were coated with these cellular and nuclear antigens for the qualitative detection of mAbs reactivity. The cut-off calibrator, negative control and positive control were provided by the manufacturer.
Description for Jo-1: as §1

B1: MEL-1872 (antibody)
VH: KVQLRESGPSLVKPSQTLSLTCTASGFSLSDKAVGWVRQAPGQPLEWLGTIDTTGNAVYNPGLKSRLSITKDNSKSQVSLSLSSVTTEDSATYHCSTVHQKTRRSCPSDYSFICDCEGTGSHCCRASNCPYYCNYGRDRMCTGRSNIHEWHVDAWGQGLLVTVSS
VL: QAVLTQPSSVSGSLGQRVSTTCSGSSSNVGNGYVSWYQLIPGSAPRTLIYGDTSRASGVPDRFSGSRSGNTVTLTISSLQAEDEADYFCASAEDGSSNAVFGRGTTLTV
notes: also called H 1872; BrNAb MEL-1872
Turning to B1, the “Env binding (%) at antibody EC50” value with N262A amounted to 27%; with M475A it was 82%; in the experiment with N276A it was 100%; with D185A, 99%; in the experiment with E87A it was 87%; in the experiment with K282A, 63%. Moreover, the “Env binding (%) at antibody EC50” value came to 38% in the experiment with A329K; 93% with Q363A; 108% with R419A; 94% with K121A; 110% with L179A; 29% with G472A. The “Env binding (%) at antibody EC50” value in the experiment with M373A is 102%; in the experiment with P369A, 88%; with R476A it was 57%; with N197A, 92%; with N283A, 76%; with P313A it was 100%. In addition, the “Env binding (%) at antibody EC50” value with S365A was determined as 70%.

B2: MEL-2129 (antibody)
VH: KVQLRESGPSLVKPSQTLSLTCTASGFSLSDKAVGWVRQAPGKALEWLGSIDTGGNAGYNPGLKSRLSITKGNSKSQVSLSVSSVTTEDSATYYCSTVHQKTRRSCPVDYYYSCDCEGSGSHCCSASNCPYYCKYGRDRVCTDKHTYSYEWYVDAWGQGLLVTVSS
VL: B1 VL
notes: also called BrNAb MEL-2129
As to B2, the binding result with CenpB and in the experiment with Jo-1 was “no binding (tested: 100 µg/ml)” in each case. In addition, the “Env binding (%) at antibody EC50” value with N262A is 18%; with M475A, 63%; with N276A, 89%; in the experiment with D185A, 93%; with E87A, 81%; with K282A, 85%. In addition, the “Env binding (%) at antibody EC50” value worked out at 46% in the experiment with A329K; 79% with Q363A; 93% in the experiment with R419A; 80% in the experiment with K121A; 101% in the experiment with L179A; 15% in the experiment with G472A. The “Env binding (%) at antibody EC50” value with M373A amounted to 92%; with P369A it was 81%; in the experiment with R476A it was 64%; with N197A it was 82%; with N283A, 64%; with P313A it was 84%. In addition, in the experiment with S365A, the “Env binding (%) at antibody EC50” value came to 126%.

B3: MEL-1842 (antibody)
VH: KVQLQESGPSLVKPSQTLSLTCTASGFSLSDKAVGWVRQAPGQALEWLGSIDTGGNADYNPGLKSRLSITKDNAKSQVSLSVSSVTTEGSATYYCSTVHQKTLRSCPSDYPYICDCEDTGSHCCRATNCPYYCNHGRDRMCTGRTYTYEWHVEAWGQGLLVTVSS
VL: B1 VL
notes: also called H 1842; BrNAb MEL-1842
On to B3, for which the binding result with CenpB and with Jo-1 was “no binding (tested: 100 µg/ml)” each time. Moreover, the “Env binding (%) at antibody EC50” value amounted to 44% in the experiment with N262A; 99% with M475A; 100% in the experiment with N276A; 100% with D185A; 108% in the experiment with E87A; 84% with K282A. The “Env binding (%) at antibody EC50” value with A329K was 101%; with Q363A, 97%; in the experiment with R419A, 110%; with K121A it was 107%; in the experiment with L179A it was 110%; in the experiment with G472A, 39%. The “Env binding (%) at antibody EC50” value with M373A stood at 102%; with P369A it was 94%; with R476A it was 81%; with N197A it was 93%; in the experiment with N283A, 82%; with P313A, 100%. Further, the “Env binding (%) at antibody EC50” value with S365A is 37%.

These data come from patent US20230272048A1 (UNIVERSITY OF MELBOURNE, published 2023).
